Test [1] addresses T1, HisβTrCP/Skp1 and HisβTrCP/GSTSkp1 (immobilised on NTA Biacore chip) (UniProt Q9Y297 175-605; P63208 1-163).
T1 construct: SPR: KD values from both surfaces (with or without the GST moiety) were averaged to give the apparent KD; also called βTrCP surfaces
As to the kind of experiment: SPR, Biacore T200, βTrCP/Skp1 immobilised. An excerpt: (§1) As βTrCP was His tagged, an NTA sensor chip was used. This sensor chip has a dextran surface matrix with immobilized nitrilotriacetic acid (NTA) which provides a means of capturing polyHis-tagged proteins through Nickel chelation. It was hoped that addition of Ni⁺ would orient the protein in a specific (and hopefully active) manner as it is covalently immobilised via amine coupling. Addition of EDC:NHS (N-ethyl-N′-(3-[…])-carbodiimide:N-hydroxysuccinimide) converts carboxyl groups on the dextran sensor chip surface to succinamide esters which readily form covalent bonds with primary amines. Each chip contains four flow cells (each a separate surface) which means that compounds/peptides can be passed over different forms of βTrCP and a reference surface simultaneously. If binding to βTrCP is occurring, responses should be the same (accounting for differences in density of surface etc) on each surface.
Small molecule/peptide samples to be assayed for binding to βTrCP surfaces, were provided as 10 mM stocks in 100% DMSO. All samples were tested in running buffer composed of 10 mM HEPES pH 7.4, 150 mM NaCl, 50 μM EDTA, 0.005% p20, and 1% DMSO. Serial dilutions were made using running buffer. Samples were tested over varying concentrations up to a maximum of 100 μM. Two methods of measuring the SPR response were employed: single cycle kinetics which measures the response across different concentrations of sample within a single cycle (no regeneration of surface) and a method that measures the response at a given concentration in each cycle and includes a regeneration wash after each sample injection. The regeneration solution used was the same as running buffer, but included 500 mM NaCl. Data was fitted using Biacore T200 evaluation software. KD values calculated from binding curves from both surfaces (with or without the GST moiety) were averaged to produce apparent KD's for each sample tested.

Test [2] concerns the target T2, βTrCP (tag cleaved and complexed with Skp1) (UniProt Q9Y297 175-605; P63208 1-163).
T2 construct: Protein of the FP assay (0.035 µM); also called Beta Transducin repeat-containing protein; βTrCP/Skp1
As to the kind of experiment: FP competition vs fluorescein-IκB peptide.

The target of test [3] is T2, βTrCP (tag cleaved and complexed with …). The test can be described thus: FP competition vs fluorescein-IκB peptide. The source holds these as a separate data set.
The target in another test is Fbw7 (UniProt Q969H0 263-707, limits assumed). The test can be described thus: cell-based or functional assay.
Chain of Fbw7 (Q969H0 263-707 limits assumed): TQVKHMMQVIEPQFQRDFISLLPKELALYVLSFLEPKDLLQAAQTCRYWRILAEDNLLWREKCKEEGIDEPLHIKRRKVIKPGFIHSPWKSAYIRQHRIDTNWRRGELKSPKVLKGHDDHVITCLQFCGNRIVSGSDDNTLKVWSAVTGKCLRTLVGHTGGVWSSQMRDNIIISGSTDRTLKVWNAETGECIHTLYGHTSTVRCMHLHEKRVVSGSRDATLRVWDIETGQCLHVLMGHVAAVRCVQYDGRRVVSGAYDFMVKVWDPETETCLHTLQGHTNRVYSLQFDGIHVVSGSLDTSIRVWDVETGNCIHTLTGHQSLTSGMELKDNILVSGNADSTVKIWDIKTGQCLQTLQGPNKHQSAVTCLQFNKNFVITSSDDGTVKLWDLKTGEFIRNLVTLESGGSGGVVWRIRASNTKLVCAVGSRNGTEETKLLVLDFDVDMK
The target of the next test is Skp2 (UniProt Q13309 1-424, limits assumed). The test can be described thus: cell-based or functional assay.
Chain of Skp2 (Q13309 whole entry): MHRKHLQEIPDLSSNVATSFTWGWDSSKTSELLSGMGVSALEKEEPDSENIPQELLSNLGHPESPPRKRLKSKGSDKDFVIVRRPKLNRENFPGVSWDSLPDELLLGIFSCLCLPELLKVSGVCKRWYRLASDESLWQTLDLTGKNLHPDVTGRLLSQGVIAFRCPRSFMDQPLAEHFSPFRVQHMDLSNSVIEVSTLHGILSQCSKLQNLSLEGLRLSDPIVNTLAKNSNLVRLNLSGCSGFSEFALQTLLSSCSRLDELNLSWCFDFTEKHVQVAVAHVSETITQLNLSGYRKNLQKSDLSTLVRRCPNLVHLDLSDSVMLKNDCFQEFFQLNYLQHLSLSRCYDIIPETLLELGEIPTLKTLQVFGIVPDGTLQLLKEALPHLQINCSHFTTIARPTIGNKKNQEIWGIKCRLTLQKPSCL
Test [4] has as its target T1, HisβTrCP/Skp1 and HisβTrCP/GSTSkp1 …. The test can be described thus: SPR (Biacore T200), single cycle run up to 1e-6 M, steady-state fit of the run shown; Rmax 2.156 RU, Chi² 0.00730 RU² [E].
Description: as §1
(§2) Small molecule/peptide samples to be assayed for binding to βTrCP surfaces, were provided as 10 mM stocks in 100% DMSO. All samples were tested in running buffer composed of 10 mM HEPES pH 7.4, 150 mM NaCl, 50 μM EDTA, 0.005% p20, and 1% DMSO. Serial dilutions were made using running buffer. […] KD values calculated from binding curves from both surfaces (with or without the GST moiety) were averaged to produce apparent KD's for each sample tested.

For test [5] the target is unchanged. The test can be described thus: SPR (Biacore T200), single cycle run up to 1e-6 M, steady-state fit of the run shown; Rmax 4.264 RU, Chi² 0.00601 RU² [B].
Description: as §1, §2

Test [6] has the same target. As to the kind of experiment: SPR (Biacore T200), single cycle run up to 1e-6 M, steady-state fit of the run shown; Rmax 3.459 RU, Chi² 0.00452 RU² [C].
Description: as §1, §2

Test [7] has the same target. The test can be described thus: SPR (Biacore T200), single cycle run up to 1e-6 M, steady-state fit of the run shown; Rmax 1.318 RU, Chi² 0.00773 RU² [D].
Description: as §1, §2

Test [8] concerns the target T3, βTrCP (tag cleaved and complexed with Skp1) (UniProt Q9Y297 175-605; P63208 1-163).
T3 construct: Protein of the fluorescence polarisation assay, 0.035 µM; also called Beta Transducin repeat-containing protein; βTrCP/Skp1
As to the kind of experiment: FP competition, 10 nM fluorescein-IκB peptide on βTrCP/Skp1. How it is done:
Binding of the compounds to βTrCP was assessed using a fluorescence polarisation (FP) binding assay. The FP assay is an in vitro binding assay using a fluorescein-tagged IkB peptide at 10 nM to mimic substrate binding to βTrCP, and was performed as described above.

Starred links: 1 amine or outer side, 2 acyl side, 3 side chain; linkers in the order of their positions; H or OH if unused. Non-standard residues stand in square brackets, D forms with d. No end group written: not given here. *: point of attachment. Benzenesulfonyl(4-OMe) = COc1ccc(S(=O)(=O)*)cc1; E(Me) = COC(=O)CC[C@H](N[*:1])C(=O)[*:2]; Phe(3-Cl) = N[C@@H](Cc1cccc(Cl)c1)C(=O)O; Phe(3-F) = N[C@@H](Cc1cccc(F)c1)C(=O)O; Tos = Cc1ccc(S(=O)(=O)*)cc1

T1 sequence (Q9Y297 175-605, chain 1 of 2): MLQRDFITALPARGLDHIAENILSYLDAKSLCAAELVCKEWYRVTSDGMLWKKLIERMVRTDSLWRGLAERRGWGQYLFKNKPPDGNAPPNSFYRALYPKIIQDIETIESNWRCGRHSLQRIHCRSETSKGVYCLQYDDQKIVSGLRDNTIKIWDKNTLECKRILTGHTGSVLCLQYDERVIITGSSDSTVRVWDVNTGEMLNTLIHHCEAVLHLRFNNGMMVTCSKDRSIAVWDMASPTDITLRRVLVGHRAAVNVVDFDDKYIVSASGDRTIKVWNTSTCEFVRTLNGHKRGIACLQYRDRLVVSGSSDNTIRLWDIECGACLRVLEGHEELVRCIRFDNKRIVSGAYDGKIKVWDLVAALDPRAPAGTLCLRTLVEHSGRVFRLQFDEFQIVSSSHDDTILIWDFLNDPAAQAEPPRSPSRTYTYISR
T1 sequence (P63208 whole entry, chain 2 of 2): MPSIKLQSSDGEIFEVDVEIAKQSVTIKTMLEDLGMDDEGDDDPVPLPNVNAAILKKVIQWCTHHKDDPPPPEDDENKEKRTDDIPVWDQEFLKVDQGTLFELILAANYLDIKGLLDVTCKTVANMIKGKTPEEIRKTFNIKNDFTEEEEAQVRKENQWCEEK

With Tos-[dD]EG[Phe(3-F)]W[E(Me)]-NH2 (also called UBP032) [Ts-dEGF(3F)WE(Me)-NH2], the dissociation constant Kd in test [1] stood at 170 nM. This molecule showed an IC50 in test [2] of 22 nM. Moreover, in test [3], the IC50 stood at 22 nM. In the test with Fbw7, the “% Inhibition Fbw7 @ 10 µM” value turned out to be 4% and the “% Inhibition Fbw7 @ (100 µM)” value was 10%. In the test with Skp2, the “% Inhibition Skp2 @ 10 µM” value came out at 0% and the “% Inhibition Skp2 @ (100 µM)” value worked out at 0%. This molecule came in with an equilibrium dissociation constant (Kd) in test [4] of 108 nM.

B1: Ts-dEGF(3Cl)WE-NH2 (peptide)
peptide: Tos-[dD]EG[Phe(3-Cl)]WE-NH2
SMILES: Cc1ccc(S(=O)(=O)N[C@H](CC(=O)O)C(=O)N[C@@H](CCC(=O)O)C(=O)NCC(=O)N[C@@H](Cc2cccc(Cl)c2)C(=O)N[C@@H](Cc2c[nH]c3ccccc23)C(=O)N[C@@H](CCC(=O)O)C(N)=O)cc1
notes: also called UBP034
B1 came in with a Kd in test [1] of 154 nM. The concentration for half-maximal inhibition (IC50) in [2] was 10 nM. The IC50 in test [3] was 10 nM. Moreover, in the test with Fbw7, the “% Inhibition Fbw7 @ 10 µM” value came out at 8% and the “% Inhibition Fbw7 @ (100 µM)” value stood at 6%. In addition, in the test with Skp2, the “% Inhibition Skp2 @ 10 µM” value came to 0% and the “% Inhibition Skp2 @ (100 µM)” value is 0%. In addition, the Kd in test [5] stood at 80.8 nM.

B2: 4-(MeO)-PhSO2-dEGF(3F)WE-NH2 (peptide)
peptide: {Benzenesulfonyl(4-OMe)}-[dD]EG[Phe(3-F)]WE-NH2
SMILES: COc1ccc(S(=O)(=O)N[C@H](CC(=O)O)C(=O)N[C@@H](CCC(=O)O)C(=O)NCC(=O)N[C@@H](Cc2cccc(F)c2)C(=O)N[C@@H](Cc2c[nH]c3ccccc23)C(=O)N[C@@H](CCC(=O)O)C(N)=O)cc1
notes: also called UBP022
In turn, B2 displayed a Kd in [1] of 48 nM. Also, the IC50 in [2] came to 17 nM. In addition, the Kd in test [6] is 49.8 nM. The IC50 in test [3] worked out at 17 nM. Also, in the test with Fbw7, the “% Inhibition Fbw7 @ 10 µM” value was 0% and the “% Inhibition Fbw7 @ (100 µM)” value worked out at 18%. In the test with Skp2, the “% Inhibition Skp2 @ 10 µM” value came to 7% and the “% Inhibition Skp2 @ (100 µM)” value was 12%.

B3: Ts-DEGF(3F)WE-NH2 (peptide)
peptide: Tos-DEG[Phe(3-F)]WE-NH2
SMILES: Cc1ccc(S(=O)(=O)N[C@@H](CC(=O)O)C(=O)N[C@@H](CCC(=O)O)C(=O)NCC(=O)N[C@@H](Cc2cccc(F)c2)C(=O)N[C@@H](Cc2c[nH]c3ccccc23)C(=O)N[C@@H](CCC(=O)O)C(N)=O)cc1
notes: also called UBP024
For B3, the figures for the Kd in [1] and in [7] were 19 nM and 40 nM, respectively. The half-inhibitory concentration (IC50) in test [2] and in test [3] was 18 nM in each case. Besides, the “% Inhibition Fbw7 @ 10 µM” value with Fbw7 came out at 0%. In addition, the “% Inhibition Fbw7 @ (100 µM)” value with Fbw7 was 8%. Further, in the test with Skp2, the “% Inhibition Skp2 @ 10 µM” value stood at 0%. The “% Inhibition Skp2 @ (100 µM)” value with Skp2 was 7%.

With DEGFFE-NH2 [DEGFFE-NH2], the IC50 in test [8] came out at 43600 nM.

(Values after US20190106460A1 (published 2019).)
